Experimental data reported in patent publication US20240301033A1 (published 2024).

Columns and labels:
[1] = target: T1, cynomolgus monkey CD8A on primary cynomolgus CD8+ T cells (cynomolgus monkey, UniProt P01732 23-235 (human entry)); test: flow cytometry, cyno CD8+ T cells, 2 uM
T1 construct: also called Cyno CD8alpha
Method: (§1) Binding of the 190 ELISA hits to human and cynomologous monkey primary CD8 T cells was assessed by flow cytometry. The FN3 domain molecules were diluted to 2 μM and 0.2 μM in PBS and incubated with human or cynomologous monkey CD8+ T cells in 96-well format. After 1 hour at 4° C., the cells were washed once with PBS and then resuspended with an anti-FN3 domain antibody (PAB25) solution. Following this incubation, the cells were washed twice with PBS and a PE conjugated secondary antibody and a viability dye were added. Finally, cells were washed and resuspended in PBS for flow cytometric analysis using a BD Canto Instrument. Cells were gating on live cells and median fluorescence intensity of the bound Centyrins (PE channel) was calculated using Cytobank software.

[2] = target: T2, human CD8 alpha (CD8A) on primary human CD8+ T cells (human, UniProt P01732 22-235); test: flow cytometry, human CD8+ T cells, 2 uM
T2 construct: whole, on cells
Method: as §1

[3] = target: T1, cynomolgus monkey CD8A on primary …; test: flow cytometry, cyno CD8+ T cells, 0.2 uM
Method: as §1

[4] = target: T2, human CD8 alpha (CD8A) on primary human …; test: flow cytometry, human CD8+ T cells, 0.2 uM
Method: as §1

T2 sequence (P01732 22-235): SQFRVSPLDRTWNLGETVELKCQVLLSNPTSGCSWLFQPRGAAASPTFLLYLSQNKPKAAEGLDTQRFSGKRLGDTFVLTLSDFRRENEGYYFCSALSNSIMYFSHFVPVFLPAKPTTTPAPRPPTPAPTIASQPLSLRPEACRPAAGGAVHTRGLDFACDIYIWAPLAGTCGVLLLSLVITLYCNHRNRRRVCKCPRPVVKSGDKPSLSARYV
T1 sequence (P01732 other isoform, or with tags, fused parts or gaps limits assumed): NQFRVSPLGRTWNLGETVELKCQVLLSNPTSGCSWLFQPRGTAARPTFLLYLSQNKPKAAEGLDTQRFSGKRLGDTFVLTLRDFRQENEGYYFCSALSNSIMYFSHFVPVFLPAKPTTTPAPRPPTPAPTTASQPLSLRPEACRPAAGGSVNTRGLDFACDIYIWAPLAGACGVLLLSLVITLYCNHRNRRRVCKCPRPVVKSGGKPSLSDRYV

B1: Tencon25-His (designed binder, not shown: small tags and cut ends)
chain: LPAPKNLVVSEVTEDSARLSWTAPDAAFDSFLIQYQESEKVGEAIVLTVPGSERSYDLTGLKPGTEYTVSIYGVKGGHRSNPLSAIFTT
notes: kd not given
- Cyno T-cell Binding 2 uM (MFI) [1]: 337 MFI
- Human T-cell Binding 2 uM (MFI) [2]: 341 MFI
- Cyno T-cell Binding 0.2 uM (MFI) [3]: 336 MFI
- Human T-cell Binding 0.2 uM (MFI) [4]: 219 MFI
